According to patent publication US20210269517A1, “METHOD OF TREATING WASTING DISORDERS” (CSL Limited, priority 2018, published 2021):

T1: VEGF-B (Mus musculus, UniProt P49766)
T1 construct: endogenous in cells; host or cells: C57BL/6 male mice (in vivo)
T1 sequence (P49766 22-207): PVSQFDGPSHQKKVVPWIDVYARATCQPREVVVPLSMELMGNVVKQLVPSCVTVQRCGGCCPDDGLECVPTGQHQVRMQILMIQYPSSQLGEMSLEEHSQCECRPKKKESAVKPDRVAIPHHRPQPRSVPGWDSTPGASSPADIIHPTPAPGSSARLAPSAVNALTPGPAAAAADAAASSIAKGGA

B1: 2H10: anti-VEGF-B antibody comprising a VH of SEQ ID NO: 3 and a VL of SEQ ID NO: 4 (antibody, V domains shown)
VH: VQLQQPGTELVKPGASVKLSCKASGYTFTGFWIHWVKQRPGQGLEWIGHINPGNGGTNYNEKFKRMATLTVDKSSSTAYMQLSSLTSEDSAVYYCARSYSNYVRAMDYWGQGTSVTVSS
VL: IQMTQTTSSLSASLGDRVTISCRASQDISNFLNWYQQKPDGTVKLLIYYTSTLHSGVPSRFSGSGSGTDYSLTISNLEQEDIATYFCQQGKTLPPTFGGGTKLEIK
modifications: amino acid sequence from a VH of antibody 2H10; amino acid sequence from a VL of antibody 2H10

Key:
[1] = tested on: visceral epididymal adipose tissue; test: Forskolin-stimulated lipolysis in adipose tissue explants in the presence of Atglistatin; type: cell-based, mice; conditions: 5 μM Atglistatin, 10 μM forskolin
Method: Male C57BL/6 wild-type mice and aged matched Vegfb^−/− mice (12 weeks old) were subjected to 14 hours of overnight fasting. Animals were sacrificed using carbon dioxide anaesthetics and visceral epididymal adipose tissue was surgically removed, washed in DPBS, and incubated in prewarmed (37° C.) DMEM (Dulbecco's modified Eagle's medium (DMEM, 1 g/l glucose; GIBCO, Life Technologies, Carlsbad, Calif.) until use. For measurements of forskolin-stimulated lipolysis, the adipose tissue pieces (20±5 mg) were pre-incubated in 200 μl DMEM containing 2% BSA (FA-free; Sigma-Aldrich) or 10 μM forskolin (Sigma-Aldrich) in the presence or absence of or 5 μM Atglistatin (Sigma-Aldrich) in 96-well plates at 37° C., 5% CO2, and 95% humidified atmosphere for 60 min. For measurements of basal lipolysis no pre-incubation was performed. Adipose tissue explants were transferred into 200 μl of identical fresh medium and incubated for further 60 min (=period of measurement) at 37° C., 5% CO2, and 95% humidified atmosphere. FA content was determined from the incubation media using a NEFA kit (Wako chemicals). The total amount of protein was measured by transferring the tissue explants into 1 ml extraction solution (Chloroform/methanol (2:1, v/v), 1% glacial acetic acid) and incubated for 60 min at 37° C. under vigorous shaking. […] Protein content of the adipose tissue explant lysates was determined from the lysed solution using BCA reagent kit (Pierce) and BSA as standard. The rate of lipolysis rate was calculated as the amount of NEFAs/mg protein/hrs. […]
Mice carrying the lox-containing gene construct allowing for Cre recombinase-mediated tissue specific ablation of Vegfb (Vegfb Flox+ mice) were generated by Taconic Artemis (Cologne, Germany). […] FA content was determined from the incubation media using a NEFA kit (Wako chemicals). The total amount of protein was measured by transferring the tissue explants into 1 ml extraction solution (Chloroform/methanol (2:1, v/v), 1% glacial acetic acid) and incubated for 60 min at 37° C. under vigorous shaking. […]

VEGF-B [2] = biological target: T1, VEGF-B; test: Body weight and blood glucose in chow-fed and overnight-fasted mice treated with anti-VEGF-B antibody; type: in vivo, C57BL/6 mice; conditions: fed or fasted state (14 h overnight); 400 μg i.p. twice weekly, 3 injections; vs isotype control
Method: Male C57BL/6 wild-type mice and aged matched (12 weeks) Vegfb^+/− and Vegfb^−/− mice were subjected to 14 hours of overnight fasting. Body weight and blood glucose levels were recorded before and after fasting. Body weight drop was calculated as a percentage of weight loss determined by recording body weight in the fasted and fed state. Glucose measurements were performed using a Bayer Contour Glucose meter on blood from the tail vein. Statistical analyses were performed using one-way ANOVA.
(§1) C57BL/6 male mice purchased from Janvier labs and injected with 3 consecutive injections intraperitoneally (i.p.) twice weekly with 400 μg of anti-VEGF-B antibody (2H10) or an isotype matched control antibody. At the age of 12-16 weeks animals were subjected to 14 hours of overnight fasting. Body weight and blood glucose levels were determined as described above.

VEGF-B [3] = biological target: T1, VEGF-B; test: Hepatic lipid droplet quantification (adipophilin) during fasting-induced lipolysis; type: in vivo, C57BL/6 mice; conditions: vs control treated
Method: Male C57BL/6 mice and aged matched (12 weeks) Vegfb^+/− and Vegfb^−/− mice were subjected to 14 hours of overnight fasting. Animals were sacrificed using carbon dioxide anaesthetics and livers and hearts were dissected. For Oil Red 0 (ORO) analysis, liver biopsies were embedded in Tissue-Tek® (Sakura) directly on the mould of the cryostat. Cryo sections (12 μm) were immersed either 5 min (liver) or 8 min (heart) in ORO working solution (2.5 g oil red 0 (Sigma-Aldrich), dissolved in 400 ml 99% isopropanol, further diluted 6:10 in H2O, filtered through a […] filter (Corning). Thereafter the sections were submerged for 3 secs in hematoxylin solution followed by short submerging in LiCO3 (for liver) and rinsed for 10 min under running tap water before they were mounted. Stained sections were examined with bright field microscopy. At least 10 frames per animal within each section were photographed with an Axio Vision microscope (Carl Zeiss) at 20× magnification. The amount of neutral lipids was quantified using Axio Vision Run wizard program for liver or heart ORO staining (pixel^2/μm^2). For measurements of lipid droplets, liver biopsies were fixed in 4% PFA for 24 hours and subsequently processed for paraffin embedding using standard procedures and 4 μm sections were prepared. Antigen retrieval was performed using Antigen retrieval solution Ph6 (Dako #S2367) and heating at 98° C. for 10 min. Sections were incubated at 4° C. overnight with guinea pig anti-adipophilin (Fitzgerald) antibody. […] The amount of lipid droplets was quantified using Axio Vision Run wizard program for hepatic adipophilin+staining (pixel^2/μm^2 or arbitrary units).
C57BL/6 male mice purchased from Janvier labs and injected with 3 consecutive injections intraperitoneally (i.p.) twice weekly with 400 μg of anti-VEGF-B antibody (2H10) or an isotype matched control antibody. […] Body weight and blood glucose levels were determined as described above. […]

VEGF-B [4] = biological target: T1, VEGF-B; test: Ex vivo lipolysis rate in visceral epididymal adipose tissue of antibody-treated mice; set-up: species or system C57BL/6 mice; conditions: vs control treated
Method: Male C57BL/6 wild-type mice and aged matched Vegfb^−/− mice (12 weeks old) were subjected to 14 hours of overnight fasting. […] FA content was determined from the incubation media using a NEFA kit (Wako chemicals). The total amount of protein was measured by transferring the tissue explants into 1 ml extraction solution (Chloroform/methanol (2:1, v/v), 1% glacial acetic acid) and incubated for 60 min at 37° C. under vigorous shaking. […] Protein content of the adipose tissue explant lysates was determined from the lysed solution using BCA reagent kit (Pierce) and BSA as standard. The rate of lipolysis rate was calculated as the amount of NEFAs/mg protein/hrs. […]
C57BL/6 male mice purchased from Janvier labs and injected with 3 consecutive injections intraperitoneally (i.p.) twice weekly with 400 μg of anti-VEGF-B antibody (2H10) or an isotype matched control antibody. […] Body weight and blood glucose levels were determined as described above.
C57BL/6 male mice were treated with an anti-VEGF-B antibody (2H10) or an isotype matched control antibody as described above. […] Basal and forskolin-stimulated lipolysis was measured as previously described above.

VEGF-B [5] = biological target: T1, VEGF-B; test: Plasma NEFAs, glycerol, triglycerides and insulin in fasting-induced lipolysis; type: in vivo, C57BL/6 mice
Method: Male C57BL/6 mice and aged matched Vegfb^+/− and Vegfb^−/− (12 weeks old) mice were subjected to 14 hours of overnight fasting. Animals were sacrificed using carbon dioxide anaesthetics and total blood was removed by cardiac puncture. Blood was centrifuged at 14000 rpm, 4° C. for 10 minutes, serum was separated and frozen in aliquots at −80° C. Commercially available kits were used for enzymatic determination of non-esterified fatty acids (NEFAs; Wako Chemicals), glycerol (Abcam), triglycerides (TAGs; Sigma-Aldrich) and insulin (Mercodia). Statistical analyses were performed using one-way ANOVA.
as §1
C57BL/6 male mice were treated with an anti-VEGF-B antibody (2H10) or an isotype matched control antibody as described above. At the age of 12-16 weeks animals were subjected to 14 hours of overnight fasting, sacrificed using carbon dioxide anaesthetics and total blood removed by cardiac puncture and processed as described above. Enzymatic determination of NEFAs (Wako Chemicals) and glycerol (Abcam), triglycerides (Sigma-Aldrich) and insulin (Mercodia) was performed as previously described.

[6] = chow-fed mice, vs isotype control
[7] = fasted mice, between treatment groups

Molecule	Forskolin-stimulated lipolysis rate ([1]; explants of AdiCre/Vegfb Flox+, WT/WT, WT/Vegfb Flox+ and AdiCre/WT mice)	Forskolin-stimulated lipolysis ([1]; explants of anti-VEGF-B and control treated C57BL/6 mice)	Forskolin-stimulated lipolysis ([1]; explants of wild-type and Vegfb−/− mice)	Blood glucose levels (VEGF-B [2])	Body weight (VEGF-B [2])	Hepatic lipid accumulation (VEGF-B [3]; fasting conditions (fasting-induced lipolysis))	Hepatic lipid accumulation (VEGF-B [3]; fasting conditions (fasting-induced lipolysis), listed as anti-VEGF-B)	Hepatic lipid accumulation (VEGF-B [3]; fed conditions)	Forskolin-stimulated lipolysis rate (VEGF-B [4]; 10 μM forskolin)	Basal lipolysis rate (VEGF-B [4]; adipose tissue of fasted mice)	Plasma insulin levels (VEGF-B [5]; [6])	Plasma levels of NEFAs (VEGF-B [5]; [6])	Plasma levels of TAGs (VEGF-B [5]; [6])	Plasma levels of glycerol (VEGF-B [5]; [6])	Plasma levels of NEFAs (VEGF-B [5]; fasted mice (14 h overnight))	Plasma levels of glycerol (VEGF-B [5]; fasted mice (14 h overnight))	Fasting plasma TAG levels (VEGF-B [5]; [7])	Fasting plasma insulin levels (VEGF-B [5]; [7])
CN(C)C(=O)Nc1cccc(-c2ccc(N(C)C)cc2)c1 [Atglistatin]	inhibited	decreased	decreased	–	–	–	–	–	–	–	–	–	–	–	–	–	–	–
B1	–	–	–	does not Influence	does not Influence	inhibited	significantly reduced	significantly reduced	No effect	significantly reduces	significant increase	did not alter	did not alter	did not alter	not increased	not increased	No differences	No differences
